Measurements reported in US7670806B2, “ADP-ribosyl acceptor hydrolase 3 (ARH3) polypeptides and methods of use” (The United States of America as represented by the …, priority 2005, dated 2010).

B1: ARH3 (E261Q/E262Q): human ARH3 mutant E261Q/E262Q (SEQ ID NO: 3) (protein, listed as Homo sapiens)
chain: MAAAAMAAAAGGGAGAARSLSRFRGCLAGALLGDCVGSFYEAHDTVDLTSVLRHVQSLEPDPGTPGSERTEALYYTDDTAMARALVQSLLAKEAFDEVDMAHRFAQEYKKDPDRGYGAGVVTVFKKLLNPKCRDVFEPARAQFNGKGSYGNGGAMRVAGISLAYSSVQDVQKFARLSAQLTHASSLGYNGAILQALAVHLALQGESSSEHFLKQLLGHMEDLEGDAQSVLDARELGMEERPYSSRLKKIGELLDQASVTRQQVVSELGNGIAAFESVPTAIYCFLRCMEPDPEIPSAFNSLQRTLIYSISLGGDTDTIATMAGAIAGAYYGMDQVPESWQQSCEGYEETDILAQSLHRVFQKS
B2: ARH3 (E238Q/E239Q): human ARH3 mutant E238Q/E239Q (SEQ ID NO: 4) (protein, listed as Homo sapiens)
chain: MAAAAMAAAAGGGAGAARSLSRFRGCLAGALLGDCVGSFYEAHDTVDLTSVLRHVQSLEPDPGTPGSERTEALYYTDDTAMARALVQSLLAKEAFDEVDMAHRFAQEYKKDPDRGYGAGVVTVFKKLLNPKCRDVFEPARAQFNGKGSYGNGGAMRVAGISLAYSSVQDVQKFARLSAQLTHASSLGYNGAILQALAVHLALQGESSSEHFLKQLLGHMEDLEGDAQSVLDARELGMQQRPYSSRLKKIGELLDQASVTREEVVSELGNGIAAFESVPTAIYCFLRCMEPDPEIPSAFNSLQRTLIYSISLGGDTDTIATMAGAIAGAYYGMDQVPESWQQSCEGYEETDILAQSLHRVFQKS
B3: ARH2: recombinant mouse or human ARH2, structurally related 39-kDa ADP-ribose-binding protein (protein, listed as Homo sapiens)
chain: MEKFKAAMLLGSVGDALGYRNVCKENSTVGMKIQEELQRSGGLDHLVLSPGEWPVSDNTIMHIATAEALTTDYWCLDDLYREMVRCYVEIVEKLPERRPDPATIEGCAQLKPNNYLLAWHTPFNEKGSGFGAATKAMCIGLRYWKPERLETLIEVSVECGRMTHNHPTGFLGSLCTALFVSFAAQGKPLVQWGRDMLRAVPLAEEYCRKTIRHTAEYQEHWFYFEAKWQFYLEERKISKDSENKAIFPDNYDAEEREKTYRKWSSEGRGGRRGHDAPMIAYDALLAAGNSWTELCHRAMFHGGESAATGTIAGCLFGLLYGLDLVPKGLYQDLEDKEKLEDLGAALYRLSTEEK
B4: mouse ARH3: murine ARH3 amino acid sequence SEQ ID NO: 6 (protein, listed as Mus musculus)
chain: MAVAAAAAATAMSAAGGGGASAARSISRFRGCLAGALLGDCVGAVYEAHDTVSLASVLSHVESLEPDPGTPGSARTETLYYTDDTAMTRALVQSLLAKEAFDEVDMAHRFAQEYKKDPDRGYGAGVITVFKKLLNPKCRDVYEPARAQFNGKGSYGNGGAMRVAGISLAYSSVQDVQKFARLSAQLTHASSLGYNGAILQALAVHLALQGVSSSEHFLEQLLGHMEELEGDAQSVLDAKELGMEERPYSSRLKKVGELLDQDVVSREEVVSELGNGIAAFESVPTAIYCFLRCMEPHPEIPSTFNSLQRTLIYSISLGGDTDTIATMAGAIAGAYYGMEQVPESWQQSCEGFEETDVLAQSLHRVFQESS

Legend:
[1] = Hydrolysis of O-acetyl-[14C]ADP-ribose by ARH proteins / PARG (RP-HPLC); assay type: biochemical; settings: 1.5 pmol wild type or mutant human ARH3 or 20 mU PARG, 2 h at 30° C.; mouse ARH1, 2, 3
Experimental: FIG. 13A is a graph illustrating the results from incubation of 1.5 pmol of mouse ARH3 with or without 5 mM DTT and/or 10 mM MgCl2 as described in FIG. 11B with incubation for 1 h at 30° C. FIG. 13B is a graph illustrating the results from incubation of 1.5 pmol of wild type or mutant human (D77-78) ARH3 or 20 mU of PARG for 2 h at 30° C. *D77,78, assays incubated with 15 pmol of mutant human ARH3 (D77, D78).
FIG. 14A is a graph of the results from incubation with the indicated amount of mouse ARH1, 2, or 3 for 2 h at 30° C. FIG. 14B is a graph of the results from incubation with 230 pmol of mouse ARH1 at 30° C. for the indicated time.
Mouse ARH3 (2 pmol) and 2.5 μM O-acetyl-[^14C]ADP-ribose (5,000 cpm) in 200 μl of buffer containing 50 mM potassium phosphate (pH 7.0), 10 mM MgCl2 and 5 mM DTT were incubated for 2 h at 30° C., before separation of substrate and products using RP-HPLC as described below.
Hydrolysis of O-acetyl-[^14C]ADP-ribose catalyzed by ARH3. Assays containing the indicated concentration of O-acetyl-[^14C]-ADP-ribose (0.1 to 2 nmol, 1,000 to 20,000 cpm) and 1.5 pmol of ARH3 in 200 μl of buffer (50 mM KPO4 (pH 7.0), 10 mM MgCl2, 5 mM DTT) were incubated at 30° C. for 20 min. Substrate and products were separated using RP-HPLC. Amounts of product were corrected for ADP-ribose produced in the absence of ARH3 before calculation of hydrolysis rates.
Because O-acetyl-ADP-ribose was known to be hydrolyzed at alkaline pH Tanny and Moazed (2001), Proc Natl Acad Sci USA. 98(2):415-20, Epub Dec. 26, 2000), it was generated at pH 7.0 in the presence of [^14C-adenine] β-NAD, Sir2, and acetylated histone H3 peptide (FIG. 11A), and the products of Sir2 and ARH3 were analyzed using reverse-phase HPLC at the same pH (FIGS. 11A,B). The products of the ARH3-catalyzed reaction were also analyzed by high resolution-polyacrylamide gel electrophoresis (FIG. 11C). O-acetyl-[^14C]ADP-ribose hydrolase activity was time and ARH3 dependent (FIG. 12) and essentially completely dependent on Mg^2+ (FIG. 13A).
O-acetyl-ADP-ribose hydrolysis by ARH1 was time and ARH1 dependent (FIG. 14b).

[2] = Poly(ADP-ribose) hydrolysis (autoradiography, high resolution PAGE, HPLC); assay type: biochemical; settings: for Release of [14C]ADP-ribose from [14C]poly(ADP-ribose)PARP relative to wild-type ARH3: 50 nM human ARH3 (wild-type or mutant), ~2 μM ADP-ribose, HPLC C18; for Poly(ADP-ribose) hydrolysis (in words): [32P]poly(ADP-ribose) or poly(ADP-ribose)PARP, 37° C., autoradiography / PAGE / HPLC
Experimental: Poly(ADP-ribose) hydrolysis by autoradiography. [^32P]poly(ADP-ribose)PARP (500 ng of PARP with poly(ADP-ribose) was incubated (37° C., 2 h) with 2 μM ARH in 25 μl of 50 mM potassium phosphate buffer, pH 7.5, with or without 10 mM MgCl2 and/or 5 mM DTT. Reactions were stopped by adding 6 μl of 5× Laemmli buffer. Samples (20 μl) of proteins were separated by SDS-PAGE in 4-20% gels and transferred to nitrocellulose membranes that were exposed to X-ray film (Kodak) for 10 h.
Hydrolysis of poly(ADP-ribose) by PARG and ARH3. Purified [^32P] poly(ADP-ribose) (5.5×10^5 cpm, ˜300 nM ADP-ribose) was incubated for the indicated time at 37° C. in 25 μl of 50 mM potassium phosphate, pH 7.5, containing 10 mM MgCl2 and 5 mM DTT with enzyme or other additions as indicated and terminated by addition of 25 μl of 2× electrophoresis buffer (Invitrogen). [^32P]AMP was generated by incubation (37° C., 3 h) of 10 μM [^32P] NAD (10 μCi/reaction) with pyrophosphatase (40 units/mg from SIGMA, 1 mg/ml) in 25 μl of 50 mM KPO4, pH 7.5, and 10 mM MgCl2. [^32P] ADP-ribose was generated in a 25 μl mixture containing 50 mM KPO4, pH 7.5, 25 μg of activated CTA, 10 μM [^32P] NAD (10 μCi/reaction), 10 mM MgCl2, and 5 mM DTT, which was incubated at 30° C. overnight. [^32P] phosphoribosyl-AMP was generated by incubation (37° C., 3 h) of [^32P]poly(ADP-ribose) (5.5×10^5 cpm, ˜300 nM ADP-ribose) with Crotalus adamanteus phosphodiesterase (10 mU/reaction), 25 μl of 50 mM KPO4, pH 7.5, 10 mM MgCl2, and 5 mM DTT. Identities of AMP and ADP-ribose standards were confirmed by HPLC on C18 and SAX columns respectively.
High resolution Polyacrylamide Gel Electrophoresis (PAGE). Polyacrylamide (20%) gels (20×20×0.15 cm) containing polyacrylamide and bis(acrylamide), in a ratio of 19:1, 100 mM Tris-borate, pH 8.3, 2 mM EDTA, 4.4 mM ammonium persulfate, and 3.4 mM TEMED with electrophoresis carried out for 2 h at 400V with 50 mM Tris-borate, pH 8.3, 1 mM EDTA, before application of samples (15 μl) were used for analysis of poly(ADP-ribose) degradation. Subsequent electrophoresis at 400V was stopped when bromophenol blue (BPB) had moved 9 cm from the origin. Gels were exposed to X-ray films (Kodak).
HPLC analysis. HPLC, Hewlett-Packard series 1100 equipped with a diode-array spectrophotometric detector set at 254 nm, was used for separation of reaction products. For anion exchange perfusion chromatography, Zorbax SAX column (4.6×250 mm; DuPont, Wilmington Del.) was washed with 20 mM potassium phosphate, pH 4.5, for 30 min, followed by a linear gradient of 0-1M NaCl in the same buffer for 10 min (30-40 min), then same buffer with 1M NaCl for 10 min (40-50 min) at a flow rate of 1 ml/min. Nicotinamide was eluted at 3 min, NAD at 10 min, and ADP-ribose at 40 min. For reverse phase, Discovery C18 column (4.6×250 mm; SUPELCO, Bellefonte Pa.) was used. Samples were separated isocratically with 100 mM potassium phosphate, pH 6.0 containing 7% methanol at a same flow rate of 1 ml/min. ADP-ribose was eluted at 6 min, NAD at 8 min, nicotinamide 9 min.
Poly(ADP-ribose)PARP was used as substrate to assay potential poly(ADP-ribose) hydrolase activities of recombinant ARH1, 2 or 3. Products were identified by autoradiography and HPLC. Fractions (1 ml) were collected for liquid scintillation counting to quantify [^14C]ADP-ribose, which was eluted in fractions from 34 min to 43 min. Because ARH1 activity may require both DTT and Mg^2+, depending on species (Takada et al. (1993) J. Biol. Chem. 268:17837-17843; Moss et al. (1992) J. Biol. Chem. 267:10481-10488), these reactions were performed with or without 10 mM MgCl2, and/or 5 mM DTT. […] Degradation of [^32P]poly(ADP-ribose) by ARH3 was enhanced by 10 mM MgCl2 (FIG. 4A). Data were similar with mouse ARH3.
Samples of [^14C] ADP-ribosylated PARP (250 ng, 15,000 cpm, ˜850 nM ADP-ribose) were incubated at 37° C. (total volume, 100 μl) with human ARH3 as indicated. […]

Row | Molecule | O-acetyl-ADP-ribose hydrolysis (in words) [1] | Release of [14C]ADP-ribose from [14C]poly(ADP-ribose)PARP relative to wild-type ARH3 [2] | Poly(ADP-ribose) hydrolysis (in words) [2]
1 | B1 | rate similar to wild type | ~98% | catalytic activities similar to that of the wild-type enzyme
2 | B2 | rate similar to wild type | ~97% | catalytic activities similar to that of the wild-type enzyme
3 | B3 | appeared to be inactive |  | did not
4 | B4 |  |  | similar
